Target: T1, Sec23–Sec24 complex (WT) (yeast (S. cerevisiae), UniProt P15303 1-768; P40482 1-926)
T1 construct: Sec23, COPII inner coat subunit, yeast; Co-expressed and co-purified complex; also called Sec23 and His-Sec24; inner coat; source: Sf9 cells (pFastbac), purified (HisTrap HP, HiTrap Q HP)
Assay: liposome flotation (coat recruitment to synthetic liposomes); purified Sar1 (15 µg/ml), Sec23–Sec24 (20 µg/ml), Sec13–Sec31 (30 µg/ml), 0.27 mM major/minor liposomes (0.4 µm), 0.1 mM GMP-PNP, HKM buffer pH 7.0, 30 min at 25°C; liposomes floated through sucrose; bound proteins by SDS-PAGE and SYPRO red
Settings: both partners purified

T1 sequence (P15303 whole entry, chain 1 of 2): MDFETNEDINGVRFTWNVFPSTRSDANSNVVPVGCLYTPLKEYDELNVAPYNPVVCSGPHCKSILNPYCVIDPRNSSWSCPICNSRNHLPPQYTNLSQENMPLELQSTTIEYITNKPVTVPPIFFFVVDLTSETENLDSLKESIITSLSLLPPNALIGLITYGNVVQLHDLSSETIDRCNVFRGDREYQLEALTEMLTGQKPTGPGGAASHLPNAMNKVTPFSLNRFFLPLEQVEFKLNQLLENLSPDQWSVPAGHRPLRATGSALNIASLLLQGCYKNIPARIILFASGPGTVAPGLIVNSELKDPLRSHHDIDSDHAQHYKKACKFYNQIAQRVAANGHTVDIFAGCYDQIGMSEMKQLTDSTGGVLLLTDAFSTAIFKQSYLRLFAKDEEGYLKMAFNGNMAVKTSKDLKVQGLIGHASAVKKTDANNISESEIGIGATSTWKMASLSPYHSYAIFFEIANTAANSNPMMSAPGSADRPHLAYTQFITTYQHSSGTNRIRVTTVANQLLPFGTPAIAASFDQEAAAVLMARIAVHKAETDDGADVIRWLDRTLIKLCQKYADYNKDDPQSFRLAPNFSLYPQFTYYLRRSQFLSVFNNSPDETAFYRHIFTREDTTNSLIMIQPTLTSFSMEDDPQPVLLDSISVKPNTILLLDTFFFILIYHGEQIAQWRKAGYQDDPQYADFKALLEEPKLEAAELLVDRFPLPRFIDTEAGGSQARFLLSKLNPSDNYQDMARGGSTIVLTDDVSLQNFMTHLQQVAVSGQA
T1 sequence (P40482 whole entry, chain 2 of 2): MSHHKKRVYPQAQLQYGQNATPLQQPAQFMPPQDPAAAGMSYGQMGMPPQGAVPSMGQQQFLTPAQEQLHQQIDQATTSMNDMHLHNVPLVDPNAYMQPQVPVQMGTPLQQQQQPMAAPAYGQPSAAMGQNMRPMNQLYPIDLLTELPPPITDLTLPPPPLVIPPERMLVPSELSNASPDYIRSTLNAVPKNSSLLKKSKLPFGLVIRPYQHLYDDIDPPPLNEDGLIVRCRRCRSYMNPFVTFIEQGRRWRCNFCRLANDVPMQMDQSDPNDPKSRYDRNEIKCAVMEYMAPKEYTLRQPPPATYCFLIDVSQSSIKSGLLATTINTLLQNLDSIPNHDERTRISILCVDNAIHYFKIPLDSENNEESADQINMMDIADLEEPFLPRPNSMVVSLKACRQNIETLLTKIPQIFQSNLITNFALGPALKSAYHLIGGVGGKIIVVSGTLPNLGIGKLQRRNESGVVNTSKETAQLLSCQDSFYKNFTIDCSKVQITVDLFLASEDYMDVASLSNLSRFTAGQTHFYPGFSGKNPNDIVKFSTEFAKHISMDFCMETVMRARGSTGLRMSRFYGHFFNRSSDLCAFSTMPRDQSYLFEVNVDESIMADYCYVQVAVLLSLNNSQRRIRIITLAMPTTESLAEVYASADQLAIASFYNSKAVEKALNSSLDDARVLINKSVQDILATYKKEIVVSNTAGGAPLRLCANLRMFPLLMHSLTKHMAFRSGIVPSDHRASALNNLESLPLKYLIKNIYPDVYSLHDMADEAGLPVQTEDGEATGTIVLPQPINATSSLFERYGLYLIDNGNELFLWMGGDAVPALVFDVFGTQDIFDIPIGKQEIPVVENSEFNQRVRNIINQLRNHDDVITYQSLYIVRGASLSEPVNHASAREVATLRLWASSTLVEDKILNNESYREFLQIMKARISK

- binding result: binds
B1: Sec13–Sec31 complex (WT) (complex, yeast (S. cerevisiae) | S. cerevisiae)
chain 1: MVVIANAHNELIHDAVLDYYGKRLATCSSDKTIKIFEVEGETHKLIDTLTGHEGPVWRVDWAHPKFGTILASCSYDGKVLIWKEENGRWSQIAVHAVHSASVNSVQWAPHEYGPLLLVASSDGKVSVVEFKENGTTSPIIIDAHAIGVNSASWAPATIEEDGEHNGTKESRKFVTGGADNLVKIWKYNSDAQTYVLESTLEGHSDWVRDVAWSPTVLLRSYLASVSQDRTCIIWTQDNEQGPWKKTLLKEEKFPDVLWRASWSLSGNVLALSGGDNKVTLWKENLEGKWEPAGEVHQ
chain 2: MVKLAEFSRTATFAWSHDKIPLLVSGTVSGTVDANFSTDSSLELWSLLAADSEKPIASLQVDSKFNDLDWSHNNKIIAGALDNGSLELYSTNEANNAINSMARFSNHSSSVKTVKFNAKQDNVLASGGNNGEIFIWDMNKCTESPSNYTPLTPGQSMSSVDEVISLAWNQSLAHVFASAGSSNFASIWDLKAKKEVIHLSYTSPNSGIKQQLSVVEWHPKNSTRVATATGSDNDPSILIWDLRNANTPLQTLNQGHQKGILSLDWCHQDEHLLLSSGRDNTVLLWNPESAEQLSQFPARGNWCFKTKFAPEAPDLFACASFDNKIEVQTLQNLTNTLDEQETETKQQESETDFWNNVSREESKEKPTVFHLQAPTWYGEPSPAAHWAFGGKLVQITPDGKGVSITNPKISGLESNTTLSEALKTKDFKPLINQRLVKVIDDVNEEDWNLLEKLSMDGTEEFLKEALAFDNDESDAQDDANNEKEDDGEEFFQQIETNFQPEGDFSLSGNIEQTISKNLVSGNIKSAVKNSLENDLLMEAMVIALDSNNERLKESVKNAYFAKYGSKSSLSRILYSISKREVDDLVENLDVSQWKFISKAIQNLYPNDIAQRNEMLIKLGDRLKENGHRQDSLTLYLAAGSLDKVASIWLSEFPDLEDKLKKDNKTIYEAHSECLTEFIERFTVFSNFINGSSTINNEQLIAKFLEFINLTTSTGNFELATEFLNSLPSDNEEVKTEKARVLIASGKSLPAQNPATATTSKAKYTNAKTNKNVPVLPTPGMPSTTSIPSMQAPFYGMTPGASANALPPKPYVPATTTSAPVHTEGKYAPPSQPSMASPFVNKTNSSTRLNSFAPPPNPYATATVPATNVSTTSIPQNTFAPIQPGMPIMGDYNAQSSSIPSQPPINAVSGQTPHLNRKANDGWNDLPLKVKEKPSRAKAVSVAPPNILSTPTPLNGIPANAASTMPPPPLSRAPSSVSMVSPPPLHKNSRVPSLVATSESPRASISNPYAPPQSSQQFPIGTISTANQTSNTAQVASSNPYAPPPQQRVATPLSGGVPPAPLPKASNPYAPTATTQPNGSSYPPTGPYTNNHTMTSPPPVFNKPPTGPPPISMKKRSNKLASIEQNPSQGATYPPTLSSSASPLQPSQPPTLASQVNTSAENVSHEIPADQQPIVDFLKEELARVTPLTPKEYSKQLKDCDKRLKILFYHLEKQDLLTQPTIDCLHDLVALMKEKKYKEAMVIHANIATNHAQEGGNWLTGVKRLIGIAEATLN
notes: Sec13, COPII outer coat subunit, yeast; Sec31, COPII outer coat subunit, S. cerevisiae; disordered proline-rich region defined as residues 764-1,174; also called outer coat; WT Sec31; source: Sf9 cells (pFastbac), purified (HisTrap HP, TEV cleavage of the 6xHis tag on Sec31, HiTrap Q HP); not shown: His6, N-terminal, cleaved
